Experiment: soluble on expression in E. coli; label from the status in PepcDB or PDB records

## MSLNKKVDIRHIFISSQERGKEEAKKLADEIYNRLKNNEDFETLAKQYSDDEKTKESGGVITELRAGFNEAVFDNAVFTAEAGQLLEPIEVARGYEIVYVDKVTDFYRTRDEYAELLTVDKFMQSDAYKEWFEEYKKNYDIEITDPAMKAFRLFREKQYNEAGALYEELYKSEKDAYYIEMACEAYKLAENWAGLIEAGKLAVKENPDFVNYYLYQAEGEFKVGDANKAKELLKEAEKKAGDNTYFLDLIRKMYESQGLAEDVERIDRKFQEISEKLKGEGHHHHHH
  soluble on expression in E. coli: soluble

## MSLSMDTVNYRPSAYPAISLIEADYRQFAFERHYHLDIHIGLITQGVQRFYHQGAWHQVGQGGVVLMSPDELHDGHAHSNTGYQVQVFSIEPEWLQQTLEANQIEQVIGFEQLIVQDPTLFHSLQQLHHLLRQDNLSQLAKDCLPYQGFAPLLERYSYLKQPTVKPLGQHNLALLKEWVLSQLDQPIRLEQLAQLCQLSPTQFQRHFKAQTGLTPYAWLRRLRLEQAMKLLQSGKPGTDVAYQVGFYDQAHFSKAFKATYGLSPSLITRFSEGHHHHHH
  soluble on expression in E. coli: not soluble

## MMGLLKRLLRVVRAEAHSVVEKLEDPIKITEEGLRELRKQLKEAMEALAQVKASQIRFEREARNEKERAKALVKKAESLLLQAQEGKISPEEAEKLAAELIQKAELHEKNARRLEEEAKRQREMAVKLQAKIDELKVQIAKYEAELKTLKARLATARAVKKVNKQIAKVDPSDTIAMLERMKEKVEEEETLAQAYEELAKQEVALDVESEAEKKLKEVESKQKLEELKKRLGLSLEHHHHHH
  soluble on expression in E. coli: not soluble

## MITYYVRQLKTFSIMSLTLSNVILHKLVKNEQDELEVCLRNQTLENEEFTEALVSELHRVFNSKAGKGFGVFKTESEFGHWLSSVRKNETPFLEFSNNSAEKLKSELIKYPFAEEGILVIAEYQSLATEYLFVAVLPSNESMKVTEQLDISATDYLDIAKMDIAARIDLSTWETDSDSNRYLTFIKGRVGRKVSDFFLDFLQADVGMDTKVQNQVLMQAVEDFCADERLDQEEKQPYRKQVYDYCNGQLQAGEELTVKELASELPTSESGSNFYQFAEEQGYELEESFPVDRTALRKLTKFVGAGGGLSLNFDAMLLGERVFYDPETDTLTIKGTPPNLKDQLEHHHHHH
  soluble on expression in E. coli: not soluble

## EEIFCHVYITEHSYVSVKAKVSSIAQEILKVVAEKIQYAEEDLALVAITFSGEKHELQPNDLVISKSLEASGRIYVYRKDLADTLNPFAEN
  soluble on expression in E. coli: soluble

## MSLKVDQKEEQVQKRLEALDKLTKTLAIVEQYYVDDQNISDLVDKSLSGLLSNLDAHSSFLNEKDFNDMKIQTNGEFGGLGITVGMKDGALTVVSPIEGTPADKAGIKSGDIILKINDEATLGINLNDAVDKMRGKPKTQITLTIFRKGATKPFDVTLTREIIKIESVYAKMIENENILYLRVTNFDKNVVDVASKELKKYPNVKGVILDLRNNPGGLLNQAIGLVNLFVDKGVIVSQKGRIASENQEYKADPKNKISNASLVVLVNGGSASASEIVSGALQDLKRGVIVGENTFGKGSVQQIIPINKTEALRLTIARYYLPSGRTIQAVGVKPDIEVFPGKVNTQEGHHHHHH
  soluble on expression in E. coli: soluble

## MQPLLEAQKKLLPDLLDVMQKRYQILHSISLMAPIGRRALAASLGMSERVLRSETEFLKGQNLLSADVSGMRLTEEGQALLHTLNDLMREALGLKELEAALQEQLGIPRVIVVAGDSDRSPWVKKEMGRACVACMKELLEPGDIVAVAGGTTMAAVAEMMTPDSKLRDVLFVPARGGLGEDVENQANTICAKMAEKAMGRYRLLHVPDQLSDEAYASLVEEPAVKEVLELIQSCRMVVHGIGEAVTMAKRRKTPPVEMEKIIARHAVAEAFGYYFNEYGDVVHKVKTVGIQLEHLPHVEHVIAVAGGASKAKAIRAYMKRAPHSLLVTDEGAAKAFVGE
  soluble on expression in E. coli: not soluble

## MGHHHHHHSHMQTLPVASALSSHRTGPPPISPSKRKFSMEPGDEDLDCDNDHVSKMSRIFNPHLNKTANGDCRRDPRERSRSPIERAVAPTMSLHGSHLYTSLPSLGLEQPLALTKNSLDASRPAGLSPTLTPGERQQNRPSVITCASAGARNCNLSHCPIAHSGCAAPGPASYRRPPSAATTCDPVVEEHFRRSLGKNYKEPEPAPNSVSITGSVDDHFAKALGDTWLQIKAAKDGASSSPESASRRGQPASPSAHMVSHSHSPSVVS
  soluble on expression in E. coli: not soluble

## MGSDKIHHHHHHMSILTVENVSHSYGEKTILYNACFRLLKGEHVGLVGQNGIGKSTLLKILTGELIHDEGNIEWFPHVKVGFLQQHIDLQEGITIEGYLQSAFADLYVIECEMLKIAEEMNGAGEVEKLLVKYGELQTILESSNFYHIHTEVEEVAIGLGLFEIGLKKDVSKLSGGQRTKLLLGKLLLEKADVLLLDEPTNYLDTAHIEWLQSYLRLYEKAYVIISHDELFLNSITNVIFHLEGGKVKRYVGNYEKFVQSYQVQKKQLQSAYVKQQKEISQLETFIQKNKIRKAKQAKSREKVLEKMQRIEKIHPVPRSRFDFNVYEEPVSRILQAEKLRIGYSDPLCPELNLQVKKGEKIAIIGHNGIGKTTMLKTLLGQIKPLSGSISVGERVNPAYFAQEEFASETTPLEKVWAERPDMTKKEVRQALAKCGLKEEHVLKPIRLLSGGEQTKVRLCELIVKKSNVLILDEPTNHLDIETKKALQEALQRYRGTVLLVSHEPSFYEAWITKVWNIEEWNAEQYE
  soluble on expression in E. coli: not soluble

## MSEISVTQTLDTLGLRCPEPVMLVRKNIRHLNDGEILLIIADDPATTRDIPSFCQFMDHTLLQCEVEKPPFKYWVKRGK
  soluble on expression in E. coli: not soluble

## MSLRAAARELSVGHTPTIGLVVADLANPFFAQLADRVVWEARSHGVQVMVMTTQEDPHLEADSLDTLLDRSVGGVIATPTGANIEKWARLQSLGVNVVFVDRTIPELEDVDLVSIENVDSARRATEHMLGLGHRRIGLITGPVSTSTGRSRIEGYKAAHNNFSISVDPQLIRDVAFRGDGGGDAVGSLLALPDRPTALIVANTAQVLSSVRRLVQIGVRIPDDLSVIVFDDNPWTELTNPPLSVIRQPIDMLAVHSLELVLGRMQGRLPAAPRTIEVKADFVPRSSCSPLALSEGHHHHHH
  soluble on expression in E. coli: soluble

## GMDTNGVLYAANMTNALAKEIPESKWDIQLIPELGTLRKLFIHIVRVRDVYRDGLKTGSIKFPGRLASDEHRLLDELERSMEELVFEFKQTTFNSIKMGENYLSIMELLGTVIQHEGIHQGQYYVALKQSGINLPKQWVQDWHM
  soluble on expression in E. coli: soluble

## GGGGGGMLNRVFLEGEIESSCWSVKKTGFLVTIKQMRFFGERLFTDYYVIYANGQLAYELEKHTKKYKTISIEGILRTYLERKSEIWKTTIEIVKIFNPKNEIVIDYKEI
  soluble on expression in E. coli: soluble

## MIIREQRVEKFNAGKAVYQSVSKTESLARTAKDRKICANLEEAIRRSGLKDGMTVSFHHAFRAGDCVVNMVMNKIAEMGFKNLTLASSSLIDSHYPLIEHIKNGVVTKIYSSGLRGQLADEISRGLLAEPVNIHSHGGRVHLIKAGELKIDVAFLGVPCCDKFGNANGFSGKSKCGSLGYARIDAEYADKVVLLTEQFDEYPLNPISIGQDNVDLIVQVDEVGDPEKIGGGATRMTTNPRELLIARKCAQVIFASGYFKDGFSLQTGTGGASLAVTRFLEDKMRREQITAGFALGGITSSIVALHEAGLIKKLIDVQSFDKDAAESLARNPNHIEVSANQYANYSSKGPSVECLDIVVLSALEIDTQFNVNVLTGSDGVIRGASGGHSDTAASAQVAIIVAPLVRGRIPTVVEQVITCVTPGENIDILVTDHGVAVNPKRLDLVDKLTAAGLELFTIEQLCARAYSITGKSKEIEFKDKPVAVVRYRDGSVIDTVYQIKELEHHHHHH
  soluble on expression in E. coli: soluble

## MIKMGRSEMKIASAELRELMKAVSEGHYETVNTILDKDPELVNQYAPPTYDSPLARVLNKKHIDYKMLDILVKHHVDFDYPINYHKETPIELACKNQDLQLFKYLVQHNAPISEQAPHFLLVNSTNIKYLTEDKIKNTCEIIKLMGGLEAVSSKCDAEGNRFGEQARKSQLINRFGGIVKYDYMQLLQSVYPIVDREVDAPTIHGSTEVLTNLLNKIRGQFSSKETYDQQNLKDSISLFFMTGGEIPPSRKVPESRFEEAGIDTPKNAL
  soluble on expression in E. coli: not soluble

Source: the DeepSol protein solubility set
